Assay results taken from IntAct's records for PubMed 24338975.

Tests used:
psd10_human PSMD10 [1] = target: psd10_human PSMD10 (UniProt O75832)
psd10_human PSMD10 [2] = target: psd10_human PSMD10 (UniProt O75832); remark: listed apart in the source

psd10_human PSMD10, sequence (O75832 whole entry): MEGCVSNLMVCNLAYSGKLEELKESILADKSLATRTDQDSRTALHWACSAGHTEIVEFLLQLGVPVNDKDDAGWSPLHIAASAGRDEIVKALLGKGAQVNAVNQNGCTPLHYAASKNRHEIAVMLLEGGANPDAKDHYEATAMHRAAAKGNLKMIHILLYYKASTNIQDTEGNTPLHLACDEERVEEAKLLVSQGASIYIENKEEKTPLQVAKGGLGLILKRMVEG
Cytoplasmic protein NCK2 (Homo sapiens), O43639 E167A;E168A;D170A, sequence (O43639 whole entry E167A/E168A/D170A): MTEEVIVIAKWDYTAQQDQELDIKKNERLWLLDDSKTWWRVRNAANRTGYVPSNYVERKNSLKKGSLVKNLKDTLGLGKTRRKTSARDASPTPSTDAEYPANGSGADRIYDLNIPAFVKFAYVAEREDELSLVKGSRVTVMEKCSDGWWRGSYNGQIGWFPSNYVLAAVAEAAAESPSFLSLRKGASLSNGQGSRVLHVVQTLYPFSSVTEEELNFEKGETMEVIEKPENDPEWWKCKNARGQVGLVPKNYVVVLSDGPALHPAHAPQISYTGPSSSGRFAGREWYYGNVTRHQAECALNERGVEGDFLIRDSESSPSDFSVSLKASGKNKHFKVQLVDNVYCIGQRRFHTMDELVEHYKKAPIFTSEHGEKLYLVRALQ

effect of a mutation on the interaction (psd10_human PSMD10 [1])	effect of a mutation on the interaction (psd10_human PSMD10 [2])	Substance
disrupting interaction strength	–	Cytoplasmic protein NCK2 (Homo sapiens), O43639 E167A;E168A;D170A
–	disrupting interaction strength	Chloride intracellular channel protein 1 (Homo sapiens) (from UniProt O00299) E150A;E151A;D153A
–	with no effect	Chloride intracellular channel protein 1 (Homo sapiens) (from UniProt O00299) V152E
